These results are taken from PMC6123443, “Selective Pressure for Biofilm Formation in Bacillus subtilis: Differential Effect of Mutations in the Master Regulator SinR on Bistability” (mBio, 2018).

Positions count from the first letter of the chain named. Names and notes keep the numbering of the source.

The labels stand for the following.
B1: eps operator inverted-repeat SinR box duplex, 21 bp (FAM1721/C-1723) (dsDNA)
DNA 1: ATTGTTCTCTAAAGAGAACTT
DNA 2: AAGTTCTCTTTAGAGAACAAT
B2: SinI (natural protein, B. subtilis, UniProt P23308 1-57, looked up)
chain: MKNAKQEHFELDQEWVELMVEAKEANISPEEIRKYLLLNKKSAHPGPAARSHTVNPF
notes: SinI, antagonist of SinR, Bacillus subtilis; sinI gene amplified by PCR with primer pair G6/G7 and cloned into plasmid pC2; also called SinR antagonist SinI; source: E. coli BL21(DE3), purified (ANX ion exchange, size exclusion)
B3: SinR wild type (natural protein, B. subtilis)
chain: MIGQRIKQYRKEKGYSLSELAEKAGVAKSYLSSIERNLQTNPSIQFLEKVSAVLDVSVHTLLDEKHETEYDGQLDSEWEKLVRDAMTSGVSKKQFREFLDYQKWRKSQKEE
notes: SinR, master regulator of biofilm formation, Bacillus subtilis; sinR allele amplified from chromosomal DNA with primer pair G8/G10 and cloned between NdeI and EcoRI of pET24a; monomer printed as 12.85 kDa; The printed monomer mass of 12.85 kDa fits the whole protein of 111 residues; No tag is named and purification was by heparin and size exclusion; also called wild-type SinR; source: E. coli …
B4: SinR^S43A (natural protein, B. subtilis)
chain: B3 chain with S43A
notes: SinR, Bacillus subtilis, with S43A; allele amplified from chromosomal DNA of the suppressor mutant with primer pair G8/G10, cloned in pET24a (NdeI/EcoRI); Spontaneous suppressor allele isolated in the laboratory from a ymdB mutant; source: E. coli BL21(DE3), purified (heparin Sepharose, size exclusion)
B5: SinR^A85T (natural protein, B. subtilis)
chain: B3 chain with A85T
notes: SinR, Bacillus subtilis, with A85T; allele amplified from chromosomal DNA of the suppressor mutant with primer pair G8/G10, cloned in pET24a (NdeI/EcoRI); Spontaneous suppressor allele isolated in the laboratory from a ymdB mutant; source: E. coli BL21(DE3), purified (heparin Sepharose, size exclusion)
B6: SinR^W104L (natural protein, B. subtilis)
chain: B3 chain with W104L
notes: SinR, Bacillus subtilis, with W104L; allele amplified from chromosomal DNA of the suppressor mutant with primer pair G8/G10, cloned in pET24a (NdeI/EcoRI); Spontaneous suppressor allele isolated in the laboratory from a ymdB mutant; source: E. coli BL21(DE3), purified (heparin Sepharose, size exclusion)
B7: SinR^K28T (natural protein, B. subtilis)
chain: B3 chain with K28T
notes: SinR, Bacillus subtilis, with K28T; allele amplified from chromosomal DNA of the suppressor mutant with primer pair G8/G10, cloned in pET24a (NdeI/EcoRI); Spontaneous suppressor allele isolated in the laboratory from a ymdB mutant; source: E. coli BL21(DE3), purified (heparin Sepharose, size exclusion)
B8: SinR^W104R (natural protein, B. subtilis)
chain: B3 chain with W104R
notes: SinR, Bacillus subtilis, with W104R; allele amplified from chromosomal DNA of the suppressor mutant with primer pair G8/G10, cloned in pET24a (NdeI/EcoRI); Spontaneous suppressor allele isolated in the laboratory from a ymdB mutant; source: E. coli BL21(DE3), purified (heparin Sepharose, size exclusion)

One data set concerns the target T1, SinR K28T (Bacillus subtilis, UniProt P06533 1-111, K28T).
T1 sequence: B3 chain with K28T
The data set is described as follows: fluorescence polarization; no polarization change up to 20 uM protein; 10 mM Tris-HCl pH 8.0, 100 mM NaCl, 1 mM EDTA; 10 nM labeled duplex, SinR diluted from 20 uM; temperature not stated. The following applies: protein: recombinant; tags: none (pET24a, native stop codon in primer G10); chain copies: 4; label: 5'-fluorescein (FAM) on strand 1; blunt. (In general: Fluorescence polarisation rises when a labelled molecule tumbles more slowly, as on binding a larger partner.)

For a further data set, the target named is T2, SinR A85T (Bacillus subtilis, UniProt P06533 1-111, A85T).
T2 sequence: B3 chain with A85T
The data set is described as follows: fluorescence polarization; 10 mM Tris-HCl pH 8.0, 100 mM NaCl, 1 mM EDTA; 10 nM labeled duplex, SinR diluted from 20 uM; temperature not stated. The following applies: protein: recombinant; tags: none (pET24a, native stop codon in primer G10); chain copies: 4; label: 5'-fluorescein (FAM) on strand 1; blunt.

A further data set deals with T3, SinR S43A (Bacillus subtilis, UniProt P06533 1-111, S43A).
T3 sequence: B3 chain with S43A
The description is as above. The conditions noted are these: protein: recombinant; tags: none (pET24a, native stop codon in primer G10); chain copies: 4; label: 5'-fluorescein (FAM) on strand 1; blunt.

The next data set addresses T4, SinR wild type (Bacillus subtilis, UniProt P06533 1-111).
T4 sequence: B3 chain
The data set is described as above. The conditions noted are these: protein: recombinant; tags: none (pET24a, native stop codon in primer G10); chain copies: 4; label: 5'-fluorescein (FAM) on strand 1; blunt.

For the next data set, the target named is T5, SinR W104L (Bacillus subtilis, UniProt P06533 1-111, W104L).
T5 sequence: B3 chain with W104L
The description is as above. The following applies: protein: recombinant; tags: none (pET24a, native stop codon in primer G10); chain copies: 2; label: 5'-fluorescein (FAM) on strand 1; blunt.

The next data set concerns the target T6, SinR W104R (Bacillus subtilis, UniProt P06533 1-111, W104R).
T6 sequence: B3 chain with W104R
The description is as above. The conditions noted are these: protein: recombinant; tags: none (pET24a, native stop codon in primer G10); chain copies: 2; label: 5'-fluorescein (FAM) on strand 1; blunt.

The target of the data set “SinR^S43A” is B4. The data set is described as follows: fluorescence polarisation; displacement of fluorescein-labelled 21-bp operator DNA (10 nM) from 5 µM SinR by SinI titrated from 50 µM to 10 nM; 10 mM Tris-HCl pH 8.0, 100 mM NaCl, 1 mM EDTA; qualitative. The following applies: both partners purified.
The data set “SinR^A85T” has as its target B5. The data set is described as above. The following applies: both partners purified.
The data set “SinR^W104L” has as its target B6. The description is as above. The following applies: both partners purified.
The data set “SinR^W104R” addresses B8. Described as above. The conditions noted are these: both partners purified.
Data set [1] concerns the molecule itself. As to the kind of experiment: SEC-MALS; SinR proteins at 5 mg/ml (equivalent to 400 µM), 150 µl on Superdex 200 Increase 10/300 GL, 50 mM Tris-HCl pH 8.0, 250 mM NaCl, 0.5 ml/min; refractive index at 25°C. (In general: Size exclusion chromatography separates by hydrodynamic size, large species first.)

With B1, the binding result with SinR K28T was “no binding”. Besides, the Kd (commonly a measure of binding affinity in units of concentration) in the data set with SinR A85T came out at 852 ± 39 nM; in the data set with SinR S43A, 350 ± 81 nM; with SinR wild type it was 179 ± 24 nM; with SinR W104L, 1900 ± 298 nM; in the data set with SinR W104R, 2580 ± 545 nM.
B2: the binding result with SinR^S43A and with SinR^A85T was “binds” throughout. In addition, the “percent of SinR-bound DNA released by a 10-fold molar excess of SinI” value with SinR^W104L and with SinR^W104R was ~60% in each case.
In the case of B3, the stoichiometry N (in general, the number of molecules, sites or subunits per partner or assembly) in data set [1] was 4.
Still for that read-out and setting: for B4 the value was 4; for B5, 4.
Same read-out and setting: the same measure for B6: 2; for B7: 4.
On the same count and under the same terms, for B8 the value was 2.
